A short description of series [1]: Single fiber tensile strength and bleaching start after two-step enzymatic application. Conditions: two-step with buffer rinse. The procedure:
Hair samples were cut into pieces 4-inches in length. The denier number (liner mass density) of each hair fiber was measured by Textechno Vibromat Instrument (Textechno Herbert Stein GmbH & Co. KG; Germany). The hair fibers were tested according to ASTM D 3822-01 (“Tensile Properties of Single Textile Fibers”; ASTM International, West Conshohocken, Pa., 2001), on an Instron testing system (Instron Model 1122 Tester; Instron, Mass.) at about 70° F. (approximately 21° C.) and 65% relative humidity. The treated area of the hair sample was placed in the middle of the gauge and both ends were gripped on the test heads. Both fiber ends were attached on a piece of tape, respectively, for easy handling and gripping on the test heads. The test used 2-inch (5.1 cm) gauge length, […], and 1.2 inch/min (3 cm/min) pulling rate. The force-strain curve of the fiber was recorded during the test. The tenacity at maximum (gf/den) was calculated by dividing maximum force (gf) by denier number (den). Note that (gf/den)/11.33=Newtons/tex (N/tex).
In a two-step application, the hair strands are first treated with perhydrolase solutions to allow the enzyme to bind hair. The hair strands are then dried or rinsed with buffer and dried. The rinse step is intended to remove excess unbound enzyme from the hair. The hair strands are soaked in triacetin and H2O2 solutions. The application is repeated for multiple times.
One experiment was carried out with C277S-HC263 and untargeted T. maritima variant C277S using the following protocol: • 1. Enzyme solutions comprising 0.5 mg/mL enzyme in 50 mM phosphate buffer (pH 8) were made with or without 10 wt % urea. • 2. Seven (7) hair strands were soaked in 0.2 mL of an enzyme solution for 10 min and then dried under N2 without prior rinsing. • 3. The hair strands were then soaked in 0.2 mL of a pH 8 solution containing 100-mM triacetin and 250-mM H2O2 for 15 min, dried, then rinsed with DI water and then dried again. • 4. Steps 2-3 were repeated up to 15 times.
Another experiment was carried out with C277S-HC263 (SEQ ID NO: 288), CPAH-HC263 (SEQ ID NO: 294), CPAH-HC1010 (SEQ ID NO: 295) and untargeted C277S using the following protocol: • 1. Enzyme solutions comprising 1.0 mg/mL enzyme in 50 mM phosphate buffer (pH 6) were prepared. For solutions containing two enzymes, the concentration of each enzyme was approximately 0.5 mg/mL. • 2. Seven (7) hair strands were soaked in 0.2 mL of an enzyme solution for 10 min, rinsed with 50 mM phosphate buffer (pH 6), and then dried under N2. • 3. The dried hair strands were then soaked into 0.2 mL of 50 mM phosphate buffer solution (pH 8) comprising 100 mM triacetin and 250 mM H2O2 for 15 min, dried, then rinsed with DI water and then dried again. • 4.

Series [2] is described as follows: Perhydrolase activity remaining bound to hair, ABTS assay. Type of series: binding, human. Conditions: 50 μg/mL. The method, then: Ten mg of human hair was submerged in 2 mL of a binding solution containing 50 μg/mL of the Thermotoga maritima perhydrolase targeted to hair via the hair binding peptide HC263 (C277S-HC263; SEQ ID NO: 288; also referred to herein as “HC1121”) in 50 mM pH 7.2 potassium phosphate buffer containing 5% of the test surfactant. The test surfactants were two nonionic surfactants: TWEEN®-20 (Sigma, St Louis, Mo.), and TRITON®-X 100 (Aldrich, St Louis, Mo.), and two ionic surfactants: CHEMBETAINE™ CAD (Cocamidopropyl betaine; Lubrizol, Wickliffe, Ohio) and RHODAPEX® ES-2K (sodium laurel ether sulfate; Rhodia Novecare, Cranbury, N.J.).
Hair was incubated in the binding solution at room temperature (˜22° C.) with gentle agitation for 30 minutes, at which time the solution was removed by aspiration and the hair rinsed with 1% TWEEN®-20 in 50 mM pH 7.2 potassium phosphate buffer. The hair was removed from the tube, blotted dry with paper towel, and transferred to a new set of tubes. The hair was rinsed once with 1% TWEEN®-20 in 50 mM pH 7.2 potassium phosphate buffer and then rinsed three times with 50 mM pH 7.2 potassium phosphate buffer. Perhydrolase activity remaining bound to the hair was determined by the ABTS assay.
The ABTS assay was performed as follows: hair samples treated as described above were transferred to new 2-mL microcentrifuge tubes (Eppendorf Protein LoBind; Eppendorf North America, Hauppauge, N.Y.) To each tube was added 480 μL of PAH buffer (50 mM potassium phosphate, pH 7.2), 14 μL of 39% hydrogen peroxide (Sigma 3410), and 6 μL triacetin (Sigma-Aldrich W200700). The perhydrolase reaction was allowed to proceed for 10 minutes at room temperature (˜22-25° C.). The reaction was stopped by diluting aliquots 10×, 100× and 1000× with 10 mM phosphoric acid. For detection 50 μL of 1 M acetic acid, 50 μL of 40 mg/mL potassium iodide, and 50 μL of 4 mM ABTS (2,2′-azino-bis(3-ethylbenzthiazoline-6-sulphonic acid; Sigma, St Louis, Mo.) were added to 50 μL of the above dilutions. Color was allowed to develop for 10 minutes and read in a spectrophotometer at 405 nm. Values from no-enzyme controls were subtracted to yield values attributable only to enzyme activity. A standard curve of OD 405 nm vs PAA concentration in ppm yielded a conversion factor of 8.75, such that an OD 405 nm of 1.0 corresponded to approximately 8.75 ppm PAA. This value was then multiplied by the appropriate dilution to arrive at the PAA concentration in the perhydrolase reaction.
The Thermotoga maritima perhydrolase targeted to hair via the hair binding peptide HC263 (C277S-HC263; SEQ ID NO: 288) was diluted to 50 μg/mL in a solution of 5% PEG-80 sorbitan laurate in 100 mM citrate-phosphate buffer adjusted to pH 4.9, pH 5.5, pH 6.0, or pH 7.0. Ten mg of human hair was added to 2 mL of the above formulations and incubated with gentle agitation for 5 minutes at room temperature to allow enzyme binding to hair. A no-enzyme control sample was included with each pH. After binding, the binding solution was removed by aspiration and the hair was washed with 2 mL of 1% TWEEN®-20 in 50 mM pH 7.2 potassium phosphate buffer. The hair was removed from the tube, blotted dry with paper towel, and transferred to a new set of tubes. The hair was rinsed once with 1% TWEEN®-20 in 50 mM pH 7.2 potassium phosphate buffer and then rinsed three time with 50 mM pH 7.2 potassium phosphate buffer. Perhydrolase activity remaining bound to the hair was determined by the ABTS assay. The results are given as ppm PAA produced at 10 minutes (after subtraction of the no-enzyme control values)
The Thermotoga maritima perhydrolase targeted to hair via the hair binding peptide HC263 (C277S-HC263; SEQ ID NO: 288) was diluted to 50 μg/mL in a solution of 5% PEG-80 sorbitan laurate in 100 mM citrate-phosphate buffer adjusted to pH 6.0. […]

A short description of series [3]: Retention of perhydrolase on hair detected by hydrolase activity. Type of series: binding. The procedure: For hair binding experiments brown hair tresses (International Hair Importers and Products, Glensdale N.Y.) were used. The hair was washed with 2% SLES, rinsed extensively with deionized water and air dried.
Around 20 mg of 1 cm brown hair fragments was added in a 1.8-mL microfuge tube. Hydrolase assay buffer (1.2 mL) as added to the hair followed by the addition of the perhydrolase enzymes to the solution. The enzymes were allowed to bind the hair for 30 min with gentle agitation (24 rpm) on an Adams Nutator (model 1105, Becton Dickinson, Franklin Lakes, N.J.). No enzyme controls, with hair and without hair, were included in the binding experiment to account for non-enzymatic hydrolysis of the pNPA hydrolase reagent. After the binding step, a 1.0-mL aliquot of the binding buffer was transferred to a new tube to quantitate the amount of unbound enzyme. Additional binding buffer was removed and the hair fragments were washed 4 times with 1 mL of 1% TWEEN®-20 in hydrolase buffer, followed by 2 washes with 1 mL each in hydrolase buffer. The hair fragments were then resuspended in 1 mL of hydrolase assay and the hydrolase activity that remained bound to the hair was measured. The C277S (“PAH”) variant of Thermotoga maritima perhydrolase (SEQ ID NO: 293) was used as a control for an un-targeted perhydrolase.

Setting [4] is: pH 6.0, binding 1 min, at 10 minutes.

B1: CPAH-HC263: fusion peptide C277S-HC263 further comprising a D128G substitution (protein)
chain: MAFFDLPLEELKKYRPERYEEKDFDEFWEETLAESEKFPLDPVFERMESHLKTVEAYDVTFSGYRGQRIKGWLLVPKLEEEKLPCVVQYIGYNGGRGFPHDWLFWPSMGYICFVMDTRGQGSGWLKGGTPDYPEGPVDPQYPGFMTRGILDPRTYYYRRVFTDAVRAVEAAASFPQVDQERIVIAGGSQGGGIALAVSALSKKAKALLCDVPFLCHFRRAVQLVDTHPYAEITNFLKTHRDKEEIVFRTLSYFDGVNFAARAKIPALFSVGLMDNISPPSTVFAAYNYYAGPKEIRIYPYNNHEGGGSFQAVEQVKFLKKLFEKGGPGSGGAGSPGSAGGPGSPSAQSQLPDKHSGLHERAPQRYGPEPEPEPEPIPEPPKEAPVVIEKPKPKPKPKPKPPAHDHKNQKETHQRHAAGSGGGGSPHHHHHH
For the molecule B1, the “Bleaching Start” value in series [1] (1.0 mg/mL enzyme pH 6) turned out to be 9th. Further, in series [1] (1.0 mg/mL enzyme pH 6, 100 mM triacetin, 250 mM H2O2, up to 13 repeats), the “Tenacity @ max” value was determined as 0.6 gf/den.

B2: SEQ ID NO: 341: C277S variant of Thermotoga maritima perhydrolase fused to hair binding domain HC263KtoR via a flexible linker (protein)
chain: MAFFDLPLEELKKYRPERYEEKDFDEFWEETLAESEKFPLDPVFERMESHLKTVEAYDVTFSGYRGQRIKGWLLVPKLEEEKLPCVVQYIGYNGGRGFPHDWLFWPSMGYICFVMDTRGQGSGWLKGDTPDYPEGPVDPQYPGFMTRGILDPRTYYYRRVFTDAVRAVEAAASFPQVDQERIVIAGGSQGGGIALAVSALSKKAKALLCDVPFLCHFRRAVQLVDTHPYAEITNFLKTHRDKEEIVFRTLSYFDGVNFAARAKIPALFSVGLMDNISPPSTVFAAYNYYAGPKEIRIYPYNNHEGGGSFQAVEQVKFLKKLFEKGGPGSGGAGSPGSAGGPGSPSAQSQLPDRHSGLHERAPQRYGPEPEPEPEPIPEPPREAPVVIERPRPRPRPRPRPPAHDHRNQRETHQRHAAGSGGGGSPHHHHHH
Take B2: the “ppm PAA” value in series [2] (5% PEG-80 sorbitan laurate pH 6.0, binding 10 min, PAA at 10 minutes) was found to be 958 ppm.

B3: C277S-HC1010: C277S variant of Thermotoga maritima perhydrolase fused via a flexible linker to hair-binding domain HC1010 (protein)
chain: MAFFDLPLEELKKYRPERYEEKDFDEFWEETLAESEKFPLDPVFERMESHLKTVEAYDVTFSGYRGQRIKGWLLVPKLEEEKLPCVVQYIGYNGGRGFPHDWLFWPSMGYICFVMDTRGQGSGWLKGDTPDYPEGPVDPQYPGFMTRGILDPRTYYYRRVFTDAVRAVEAAASFPQVDQERIVIAGGSQGGGIALAVSALSKKAKALLCDVPFLCHFRRAVQLVDTHPYAEITNFLKTHRDKEEIVFRTLSYFDGVNFAARAKIPALFSVGLMDNISPPSTVFAAYNYYAGPKEIRIYPYNNHEGGGSFQAVEQVKFLKKLFEKGGPGSGGAGSPGSAGGPGSAQSQLPDKHSGLHERAPQRYGSGTAEIQSSKNPNPHPQRSWTNGSGHNHMQERYTDPQHSPSVNGLGSGHDHKNQKETHQRHAASSHHHHHH
Turning to B3, the “Activity in the first TWEEN®-20 wash” value in series [3] (hydrolase activity, 1% TWEEN®-20) came to 20%. The “Activity retained on hair after 4 TWEEN® 20 washes” value in series [3] (hydrolase activity, 4 washes 1% TWEEN®-20 and 2 buffer washes) is recorded as 41%. The same molecule returned an Activity unbound in series [3] (hydrolase activity, ~20 mg hair, binding 30 min) of 20%. Besides, the “100% activity (hydrolase activity added to the tube)” value in series [3] (tube containing ~20 mg of hair, not subjected to washes) amounted to 125 µmol/min.

B4: SEQ ID NO: 314: untargeted S54V variant of the aryl esterase from Mycobacterium smegmatis (protein, listed as Mycobacterium smegmatis)
chain: MAKRILCFGDSLTWGWVPVEDGAPTERFAPDVRWTGVLAQQLGADFEVIEEGLVARTTNIDDPTDPRLNGASYLPSCLATHLPLDLVIIMLGTNDTKAYFRRTPLDIALGMSVLVTQVLTSAGGVGTTYPAPKVLVVSPPPLAPMPHPWFQLIFEGGEQKTTELARVYSALASFMKVPFFDAGSVISTDGVDGIHFTEANNRDLGVALAEQVRSLL
For the molecule B4, in series [2] (setting [4]), the “OD 405nm” value was 0.003 and the Peracetic acid is reported as 2.60 ppm.

The record behind these values is US20130171217A1, “ENZYMATIC PERACID GENERATION FOR USE IN SKIN CARE PRODUCTS” (E I DU PONT DE NEMOURS AND COMPANY, priority 2010, published 2013).
